Assay results reported in the supplement of paper PMC6757056.
± gives the standard deviation of the averaged measurements.

B1: library; a variant is named by its letters at N, in order (parent)
chain: GCUGUCACCGGUGCUUGGUACGUUAUAUUCAGCCGGUCUGAUGAGUCUNNNNNNAGACGAAACAGC

Columns and labels:
[1] = variants of: B1; test: normalized RNA/DNA level without ligand (relative to sTRSVctl = 100) (log10 (% of sTRSVctl)); HEK293T overexpressing SLC46A1; higher = less ribozyme self-cleavage, higher mRNA level; details: without (6R,S)-folinic acid; ligand present: no
Summary of the method: (§1)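 HEK293T cells were transfected with library plasmids carrying ribozyme switches linked to an mCherry reporter, or an eGFP reporter in some ligand experiments, at 4 µg per well of a 6-well plate, with any ligand added 1 h beforehand. After 72 h, total RNA was extracted with EDTA, reverse-transcribed, amplified, barcoded and sequenced. RNA level was defined as RNA reads over DNA reads, normalized to a spiked-in non-cleaving sequence or to the top-ranked sequences. That value was multiplied by 100 and converted to log10, the top set was 25 sequences, and only sequences with ≥100 DNA reads were retained.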

[2] = variants of: B1; test: normalized RNA/DNA level with ligand (relative to sTRSVctl = 100) (log10 (% of sTRSVctl)); HEK293T overexpressing SLC46A1; ligand concentration (+) RNA-Seq: 6 mM; higher = less ribozyme self-cleavage, higher mRNA level; details: with (6R,S)-folinic acid; ligand present: yes
Summary of the method: as §1

Variant	normalized RNA/DNA level without ligand (log10) [1]	normalized RNA/DNA level with ligand (log10) [2]
AAGAGC	1.984 ± 0.0028	1.99 ± 0.044
UAGAAC	1.979 ± 0.012	2 ± 0.033
AACUUC	2.063 ± 0.0082	2.039 ± 0.014
AACUUU	2.01 ± 0.022	2.01 ± 0.022
CAGCCC	2.077 ± 0.02	2.027 ± 0.013
CAGCCA	1.9832 ± 0.0011	2.01 ± 0.063
CAGCCG	2.044 ± 0.0032	2.053 ± 0.019
CAGCGC	2.046 ± 0.016	2.01 ± 0.039
CAGCGU	1.999 ± 0.0031	1.99 ± 0.053
CAGCGA	2.03 ± 0.0044	2.002 ± 0.0065
CAGCGG	1.984 ± 0.0099	2.06 ± 0.029
CAGAGC	2.013 ± 0.01	2.01 ± 0.028
CAGAGU	1.996 ± 0.0082	2.02 ± 0.035
CAGAGA	1.999 ± 0.019	2.01 ± 0.045
GAGCUU	2.051 ± 0.011	2.04 ± 0.064
GAGCUG	2.087 ± 0.0096	2.07 ± 0.051
GAGCUC	2.07 ± 0.011	2.05 ± 0.041
AAGCCC	2.0608 ± 0.0014	2.04 ± 0.039
AAGCCA	2.009 ± 0.0029	2.03 ± 0.022
AAGCCG	1.988 ± 0.0067	2.01 ± 0.041
CACUGC	2.057 ± 0.016	2.05 ± 0.032
CACUGU	2.057 ± 0.0081	2.056 ± 0.011
AAGAAU	1.95 ± 0.0044	2.011 ± 0.014
AACUAG	1.94 ± 0.022	2.02 ± 0.039

Variant	normalized RNA/DNA level without ligand (log10) [1]	normalized RNA/DNA level with ligand (log10) [2]
AACUAU	1.975 ± 0.0066	2 ± 0.037
AAGCUG	2.01 ± 0.0066	2.048 ± 0.0075
AAGCUC	2.055 ± 0.019	2.054 ± 0.014
AAGCUU	2.01 ± 0.019	2.012 ± 0.0064
AAGCUA	1.991 ± 0.0072	2 ± 0.024
GAGCGG	1.982 ± 0.011	2.06 ± 0.031
GAGCGU	1.982 ± 0.0095	2 ± 0.048
GAGCGC	2.002 ± 0.017	2.03 ± 0.054
CAGCUA	2.02 ± 0.0022	2.04 ± 0.022
CAGCUC	2.05 ± 0.023	2.035 ± 0.013
CAGCUU	1.987 ± 0.0035	2.01 ± 0.026
AAGCGG	1.941 ± 0.005	2 ± 0.054
AAGCGA	1.95 ± 0.02	2.02 ± 0.048
AAGCGU	1.956 ± 0.0071	2.02 ± 0.04
AAGCGC	2.025 ± 0.0081	2.03 ± 0.05
UAGACC	2.039 ± 0.0018	2.013 ± 0.016
UACUCG	1.8448 ± 0.00067	1.99 ± 0.031
UACUCA	1.9962 ± 0.00016	1.98 ± 0.038
UACUCU	2.027 ± 0.0077	2.05 ± 0.028
UACUCC	2.051 ± 0.012	2.034 ± 0.0051
UACUUA	1.9834 ± 0.00066	2.01 ± 0.0084
UACUUC	2.0503 ± 0.00055	2.03 ± 0.042
UACUUU	2.001 ± 0.0048	2.03 ± 0.042
GAGCCC	2.023 ± 0.013	2.02 ± 0.053

Variant	normalized RNA/DNA level without ligand (log10) [1]	normalized RNA/DNA level with ligand (log10) [2]
UAGCGA	1.921 ± 0.018	2.035 ± 0.019
UAGCGC	1.998 ± 0.018	2.005 ± 0.013
UAGCGU	1.921 ± 0.0035	1.99 ± 0.048
GACUUU	1.9897 ± 4.9e-05	1.97 ± 0.037
GACUUA	1.982 ± 0.0071	1.99 ± 0.022
GACUUC	2.08 ± 0.029	2.064 ± 0.014
UAGCAC	1.992 ± 0.0065	2 ± 0.036
UAGCAA	1.918 ± 0.0043	1.98 ± 0.035
UACUAG	1.828 ± 0.016	1.99 ± 0.031
UACUAC	2.022 ± 0.0093	2.011 ± 0.0087
CAGAUG	2.0121 ± 0.0011	2.026 ± 0.019
CAGAUU	1.997 ± 0.01	2.004 ± 0.011
CAGAUC	2.046 ± 0.013	2.03 ± 0.052
UAGAGU	1.855 ± 0.011	1.992 ± 0.016
GAGACG	1.978 ± 0.014	2.031 ± 0.014
GAGACC	2.021 ± 0.0065	2.04 ± 0.057
GAGACA	1.976 ± 0.0079	2.01 ± 0.031
UAGAUA	1.961 ± 0.0041	2.01 ± 0.025
UAGAUU	1.98 ± 0.0065	2.01 ± 0.047
UAGAUC	2.0543 ± 0.0014	2.06 ± 0.055
CAGACG	2.028 ± 0.0044	2.009 ± 0.0054
CAGACU	2.048 ± 0.0077	2.011 ± 0.0042
AAGCAC	2.022 ± 0.0075	1.98 ± 0.045
AAGCAG	1.925 ± 0.0059	2 ± 0.045

Variant	normalized RNA/DNA level without ligand (log10) [1]	normalized RNA/DNA level with ligand (log10) [2]
GAGAUC	2.038 ± 0.0061	2.001 ± 0.014
GAGAUA	1.993 ± 0.011	2.03 ± 0.026
GAGAUG	1.926 ± 0.0081	2.02 ± 0.035
GAGAUU	2.017 ± 0.0046	2.01 ± 0.022
AACUCU	2.0187 ± 0.0003	2.02 ± 0.031
AACUCA	2.03 ± 0.0039	2.003 ± 0.016
AACUCC	2.06 ± 0.031	2.01 ± 0.032
CAGAAC	2.003 ± 0.0049	2.02 ± 0.056
CAGAAG	1.925 ± 0.006	2.02 ± 0.03
CACUAU	1.962 ± 0.0042	2.01 ± 0.03
CACUAG	1.949 ± 0.01	2.02 ± 0.034
UAGCCA	2.034 ± 0.011	2.046 ± 0.019
UAGCCC	2.0516 ± 0.00055	2.03 ± 0.006
GAGCAA	1.96 ± 0.025	2 ± 0.049
CACUUU	1.985 ± 0.013	1.98 ± 0.036
CACUUC	2.04 ± 0.03	2.026 ± 0.012
CACUUG	2.032 ± 0.0036	2.03 ± 0.0041
CACUUA	1.952 ± 0.0058	1.97 ± 0.058
UAGCUC	2.08 ± 0.017	2.0396 ± 0.002
UAGCUA	1.9994 ± 0.0013	2.03 ± 0.048
UAGCUG	1.9 ± 0.021	2.026 ± 0.016
UAGCUU	2.001 ± 0.012	2.02 ± 0.029
CACUCU	2.057 ± 0.015	2.043 ± 0.018
CACUCC	2.044 ± 0.0027	2.02 ± 0.04

Variant	normalized RNA/DNA level without ligand (log10) [1]	normalized RNA/DNA level with ligand (log10) [2]
CACUCA	2.013 ± 0.0028	2.03 ± 0.025
CACUCG	2.01 ± 0.03	2 ± 0.024
GACUGA	2.03 ± 0.02	2 ± 0.025
GACUGG	2.023 ± 0.018	2.018 ± 0.018
GACUGU	1.98 ± 0.011	1.98 ± 0.068
GACUGC	1.998 ± 0.0095	2.02 ± 0.037
GACUCG	2.0319 ± 0.0013	2.05 ± 0.032
GACUCA	2.004 ± 0.0082	1.98 ± 0.028
GACUCU	2.033 ± 0.0069	2 ± 0.066
CAGCAG	1.962 ± 0.015	2.03 ± 0.052
CAGCAA	1.963 ± 0.018	1.971 ± 0.013
CAGCAC	2.03 ± 0.022	1.98 ± 0.045
GAGAGC	1.945 ± 0.01	2.03 ± 0.042
AACUGU	1.97 ± 0.016	2.007 ± 0.02
AACUGC	2.048 ± 0.015	2.06 ± 0.038
UACUGA	1.9244 ± 0.0015	2.03 ± 0.034
UACUGU	1.936 ± 0.0083	1.98 ± 0.02
GAGAAU	1.973 ± 0.0097	2.02 ± 0.051
AAGACU	2.01 ± 0.0024	2.02 ± 0.04
AAGACC	2.03 ± 0.033	2.03 ± 0.03
